Measurements taken from publication PMC10801861, “Elf1 promotes Rad26’s interaction with lesion-arrested Pol II for transcription-coupled repair” (Proceedings of the National Academy of Sciences of the …, 2024).

B1: Rad26 (wild type) (enzyme, S. cerevisiae)
chain: MEDKEQQDNAKLENNESLKDLGVNVLSQSSLEEKIANDVTNFSNLQSLQQEETRLERSKTALQRYVNKKNHLTRKLNNTTRISVKQNLRDQIKNLQSDDIERVLKDIDDIQSRIKELKEQVDQGAENKGSKEGLQRPGETEKEFLIRTGKITAFGHKAGFSLDTANREYAKNDEQKDEDFEMATEQMVENLTDEDDNLSDQDYQMSGKESEDDEEEENDDKILKELEDLRFRGQPGEAKDDGDELYYQERLKKWVKQRSCGSQRSSDLPEWRRPHPNIPDAKLNSQFKIPGEIYSLLFNYQKTCVQWLYELYQQNCGGIIGDEMGLGKTIQVIAFIAALHHSGLLTGPVLIVCPATVMKQWCNEFQHWWPPLRTVILHSMGSGMASDQKFKMDENDLENLIMNSKPSDFSYEDWKNSTRTKKALESSYHLDKLIDKVVTDGHILITTYVGLRIHSDKLLKVKWQYAVLDEGHKIRNPDSEISLTCKKLKTHNRIILSGTPIQNNLTELWSLFDFIFPGKLGTLPVFQQQFVIPINIGGYANATNIQVQTGYKCAVALRDLISPYLLRRVKADVAKDLPQKKEMVLFCKLTKYQRSKYLEFLHSSDLNQIQNGKRNVLFGIDILRKICNHPDLLDRDTKRHNPDYGDPKRSGKMQVVKQLLLLWHKQGYKALLFTQSRQMLDILEEFISTKDPDLSHLNYLRMDGTTNIKGRQSLVDRFNNESFDVFLLTTRVGGLGVNLTGANRIIIFDPDWNPSTDMQARERAWRIGQKREVSIYRLMVGGSIEEKIYHRQIFKQFLTNRILTDPKQKRFFKIHELHDLFSLGGENGYSTEELNEEVQKHTENLKNSKSEESDDFEQLVNLSGVSKLESFYNGKEKKENSKTEDDRLIEGLLGGESNLETVMSHDSVVNSHAGSSSSNIITKEASRVAIEAVNALRKSRKKITKQYEIGTPTWTGRFGKAGKIRKRDPLKNKLTGSAAILGNITKSQKEASKEARQENYDDGITFARSKEINSNTKTLENIRAYLQKQNNFFSSSVSILNSIGVSLSDKEDVIKVRALLKTIAQFDKERKGWVLDEEFRNNNAS
notes: Rad26, S. cerevisiae ortholog of human CSB, Swi2/Snf2 family ATPase; also called Rad26(WT); yeast ortholog of CSB; source: E. coli Rosetta 2(DE3), purified (Ni-NTA agarose, Hi-Trap Heparin HP, Superdex 200)
B2: Rpb4/7 heterodimer of S. cerevisiae RNA polymerase II (complex)
chain 1: MNVSTSTFQTRRRRLKKVEEEENAATLQLGQEFQLKQINHQGEEEELIALNLSEARLVIKEALVERRRAFKRSQKKHKKKHLKHENANDETTAVEDEDDDLDEDDVNADDDDFMHSETREKELESIDVLLEQTTGGNNKDLKNTMQYLTNFSRFRDQETVGAVIQLLKSTGLHPFEVAQLGSLACDTADEAKTLIPSLNNKISDDELERILKELSNLETLY
chain 2: MFFIKDLSLNITLHPSFFGPRMKQYLKTKLLEEVEGSCTGKFGYILCVLDYDNIDIQRGRILPTDGSAEFNVKYRAVVFKPFKGEVVDGTVVSCSQHGFEVQVGPMKVFVTKHLMPQDLTFNAGSNPPSYQSSEDVITIKSRIRVKIEGCISQVSSIHAIGSIKEDYLGAI
notes: Rpb4 subunit of S. cerevisiae RNA polymerase II; Rpb7 subunit of S. cerevisiae RNA polymerase II; In the structures it stood assembled into 12-subunit Pol II; also called Pol II stalk

How the values were obtained:
[1] = molecular target: S. cerevisiae 12-subunit RNA polymerase II (S. cerevisiae) (UniProt P04050); test: mass photometry; 12-subunit CPD-arrested Pol II complex (EC, on DNA/RNA scaffold) mixed with an equimolar amount of Rad26, diluted to 5, 10, 15 and 25 nM, incubated 20 min; no Elf1; Kd from particle counts, 12 reads
[2] = molecular target: S. cerevisiae 12-subunit RNA polymerase II (S. cerevisiae) (UniProt P04050); test: mass photometry; 12-subunit CPD-arrested Pol II complex (EC, on DNA/RNA scaffold) mixed with an equimolar amount of Rad26, diluted to 2, 5, 15 and 20 nM, with additional Elf1 (final 500 nM), incubated 20 min; Kd from particle counts, 12 reads
[3] = molecular target: T1, Rpb2 subunit of S. cerevisiae RNA polymerase II (S. cerevisiae, UniProt P08518 1-1224); test: cryo-EM structure; Pol II(CPD)-Rad26 with 10-subunit Pol II lacking Rpb4/7, CPD lesion scaffold; 4.7 A; conditions: both partners purified
T1 construct: Rpb2, second largest subunit of S. cerevisiae RNA polymerase II, within the assembled polymerase; Seen only as a subunit of Pol II in the structures
T1 sequence (P08518 whole entry): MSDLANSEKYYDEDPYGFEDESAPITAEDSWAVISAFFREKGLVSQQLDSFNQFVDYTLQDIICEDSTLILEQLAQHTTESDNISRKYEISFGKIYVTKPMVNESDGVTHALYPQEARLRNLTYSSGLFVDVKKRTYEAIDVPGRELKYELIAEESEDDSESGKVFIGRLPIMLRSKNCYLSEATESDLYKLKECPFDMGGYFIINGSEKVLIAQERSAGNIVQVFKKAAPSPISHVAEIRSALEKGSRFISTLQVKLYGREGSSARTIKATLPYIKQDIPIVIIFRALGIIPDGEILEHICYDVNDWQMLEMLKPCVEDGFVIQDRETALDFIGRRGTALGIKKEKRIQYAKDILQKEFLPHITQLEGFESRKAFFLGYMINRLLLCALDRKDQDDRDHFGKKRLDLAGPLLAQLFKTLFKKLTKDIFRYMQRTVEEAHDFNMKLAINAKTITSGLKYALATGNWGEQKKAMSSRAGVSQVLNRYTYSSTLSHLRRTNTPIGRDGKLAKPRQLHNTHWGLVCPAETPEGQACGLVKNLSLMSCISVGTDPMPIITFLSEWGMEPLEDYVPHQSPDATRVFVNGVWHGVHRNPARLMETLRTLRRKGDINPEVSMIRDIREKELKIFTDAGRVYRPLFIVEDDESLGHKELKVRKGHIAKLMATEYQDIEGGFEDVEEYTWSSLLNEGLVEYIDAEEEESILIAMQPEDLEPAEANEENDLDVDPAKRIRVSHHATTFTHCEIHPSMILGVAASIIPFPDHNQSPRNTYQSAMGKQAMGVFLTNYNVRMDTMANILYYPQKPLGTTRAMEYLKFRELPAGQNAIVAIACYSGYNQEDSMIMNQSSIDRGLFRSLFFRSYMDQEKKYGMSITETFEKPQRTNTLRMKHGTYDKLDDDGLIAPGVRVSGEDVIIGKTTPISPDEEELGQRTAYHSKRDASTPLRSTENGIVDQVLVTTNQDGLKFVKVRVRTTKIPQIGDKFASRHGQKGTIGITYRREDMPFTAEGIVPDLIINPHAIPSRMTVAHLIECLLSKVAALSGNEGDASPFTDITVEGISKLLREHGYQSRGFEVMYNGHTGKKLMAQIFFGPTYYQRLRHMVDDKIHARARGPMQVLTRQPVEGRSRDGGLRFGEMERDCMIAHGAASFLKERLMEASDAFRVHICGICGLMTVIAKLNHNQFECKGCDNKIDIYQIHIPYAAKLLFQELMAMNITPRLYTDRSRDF

[4] = molecular target: T2, Rpb1 subunit of S. cerevisiae RNA polymerase II (S. cerevisiae, UniProt P04050 1-1733); test: as above; conditions: both partners purified
T2 construct: Rpb1, largest subunit of S. cerevisiae RNA polymerase II, within the assembled polymerase; Seen only as a subunit of Pol II in the structures
T2 sequence (P04050 whole entry): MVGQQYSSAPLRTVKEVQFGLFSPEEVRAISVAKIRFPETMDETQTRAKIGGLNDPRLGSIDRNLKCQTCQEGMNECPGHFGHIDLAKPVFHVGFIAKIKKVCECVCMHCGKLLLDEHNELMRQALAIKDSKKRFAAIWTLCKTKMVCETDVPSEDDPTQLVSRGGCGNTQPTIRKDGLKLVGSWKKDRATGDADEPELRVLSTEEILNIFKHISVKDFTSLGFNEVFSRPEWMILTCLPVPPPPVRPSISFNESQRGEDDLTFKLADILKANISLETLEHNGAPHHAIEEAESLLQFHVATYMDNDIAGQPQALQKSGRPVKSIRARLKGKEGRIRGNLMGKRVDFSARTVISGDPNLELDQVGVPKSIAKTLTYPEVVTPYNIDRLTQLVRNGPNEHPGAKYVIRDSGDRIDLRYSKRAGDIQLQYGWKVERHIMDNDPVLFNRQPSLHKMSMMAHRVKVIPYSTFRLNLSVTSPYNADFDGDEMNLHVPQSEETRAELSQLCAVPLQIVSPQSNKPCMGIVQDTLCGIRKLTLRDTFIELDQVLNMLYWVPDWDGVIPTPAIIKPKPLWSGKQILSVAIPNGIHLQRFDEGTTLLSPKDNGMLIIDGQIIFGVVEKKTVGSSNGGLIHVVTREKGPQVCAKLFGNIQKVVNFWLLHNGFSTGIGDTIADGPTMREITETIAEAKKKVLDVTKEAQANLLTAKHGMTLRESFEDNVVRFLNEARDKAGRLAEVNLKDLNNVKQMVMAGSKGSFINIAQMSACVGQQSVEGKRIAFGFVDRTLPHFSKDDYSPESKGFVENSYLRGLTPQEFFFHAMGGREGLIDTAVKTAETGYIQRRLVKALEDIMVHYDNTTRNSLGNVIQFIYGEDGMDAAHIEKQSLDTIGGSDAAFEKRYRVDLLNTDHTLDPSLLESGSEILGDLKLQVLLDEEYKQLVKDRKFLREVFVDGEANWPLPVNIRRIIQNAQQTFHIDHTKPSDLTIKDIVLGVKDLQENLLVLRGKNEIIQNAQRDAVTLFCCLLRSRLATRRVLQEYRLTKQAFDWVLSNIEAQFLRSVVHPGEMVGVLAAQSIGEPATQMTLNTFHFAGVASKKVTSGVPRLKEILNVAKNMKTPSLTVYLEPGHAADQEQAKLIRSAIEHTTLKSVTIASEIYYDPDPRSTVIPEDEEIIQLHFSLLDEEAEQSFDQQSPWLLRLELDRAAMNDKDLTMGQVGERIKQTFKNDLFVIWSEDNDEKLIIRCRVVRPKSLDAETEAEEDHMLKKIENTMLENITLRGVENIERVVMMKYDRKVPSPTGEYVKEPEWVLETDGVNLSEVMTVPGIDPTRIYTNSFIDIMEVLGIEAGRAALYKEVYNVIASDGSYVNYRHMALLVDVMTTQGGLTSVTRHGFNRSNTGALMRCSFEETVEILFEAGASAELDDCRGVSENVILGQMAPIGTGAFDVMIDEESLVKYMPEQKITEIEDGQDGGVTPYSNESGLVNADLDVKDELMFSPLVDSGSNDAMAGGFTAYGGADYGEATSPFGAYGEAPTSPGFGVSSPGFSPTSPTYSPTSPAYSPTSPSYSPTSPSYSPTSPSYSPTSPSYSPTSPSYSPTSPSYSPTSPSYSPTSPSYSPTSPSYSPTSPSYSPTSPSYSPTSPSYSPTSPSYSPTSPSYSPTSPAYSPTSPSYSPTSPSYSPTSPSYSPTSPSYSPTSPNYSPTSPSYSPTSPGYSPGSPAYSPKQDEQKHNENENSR

Rad26 (wild type) = molecular target: B1; test: cryo-EM structure; Pol II(CPD)-Rad26-Elf1 (Closed state): Elf1 incubated with the Pol II(CPD)-Rad26 complex; 1 uM Pol II, 2 uM Rad26, 1.1 uM scaffold, 5 uM Elf1; 3.1 A; conditions: both partners purified

B1
Kd [1]: 23 nM | Kd [2]: 9 nM | binding result [3]: binds | binding result [4]: binds

B2
binding result (Rad26 (wild type)): binds
